The source of these data is paper PMC7129780 (Cytokine, 2019).

Test [1] concerns the target T1, IFNλR1 (UniProt Q8IU57 21-228).
T1 sequence (looked up): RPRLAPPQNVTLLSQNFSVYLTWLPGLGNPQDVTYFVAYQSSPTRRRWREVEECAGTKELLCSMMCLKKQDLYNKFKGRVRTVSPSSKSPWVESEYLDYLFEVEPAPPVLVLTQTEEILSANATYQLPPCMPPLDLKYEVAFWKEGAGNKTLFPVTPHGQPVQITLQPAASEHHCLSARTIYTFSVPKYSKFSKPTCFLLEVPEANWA
The experiment in a line: BLI.

The target in test [2] is T2, IL10Rβ (UniProt Q08334 20-220).
T2 sequence (looked up): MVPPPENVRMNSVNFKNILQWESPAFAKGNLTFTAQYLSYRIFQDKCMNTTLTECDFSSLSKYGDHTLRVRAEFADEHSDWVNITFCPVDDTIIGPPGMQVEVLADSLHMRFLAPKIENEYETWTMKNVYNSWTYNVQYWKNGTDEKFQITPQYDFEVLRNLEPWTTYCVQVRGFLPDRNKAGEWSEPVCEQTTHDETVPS
The experiment in a line: BLI.

B1: IFNλ4 variant M1 (L28N) (ligand, human, UniProt K9M1U5 22-179, looked up)
chain: AAPRRCNLSHYRSLEPRTLAAAKALRDRYEEEALSWGQRNCSFRPRRDPPRPSSCARLRHVARGIADAQAVLSGLHRSELLPGAGPILELLAAAGRDVAACLELARPGSSRKVPGAQKRRHKPRRADSPRCRKASVVFNLLRLLTWELRLAAHSGPCL
modifications: biotinylated (site not stated) for BLI; N-glycan at N61; mutated L28N not glycosylated
As to B1, the values for the Kd in test [1] and in test [2] were 14 nM and 49 nM, respectively.

B2: IFNλ4 variant M3 (P73N) (ligand, human, UniProt K9M1U5 22-179, looked up)
chain: AAPRRCLLSHYRSLEPRTLAAAKALRDRYEEEALSWGQRNCSFRPRRDPPRNSSCARLRHVARGIADAQAVLSGLHRSELLPGAGPILELLAAAGRDVAACLELARPGSSRKVPGAQKRRHKPRRADSPRCRKASVVFNLLRLLTWELRLAAHSGPCL
modifications: biotinylated (site not stated) for BLI; N-glycans at N61 and at mutated P73N
On to B2, for which the figures for the Kd in test [1] and in test [2] were 22 nM and 51 nM, respectively.

B3: IFNλ4 variant M7 (L28N + P73N) (ligand, human, UniProt K9M1U5 22-179, looked up)
chain: AAPRRCNLSHYRSLEPRTLAAAKALRDRYEEEALSWGQRNCSFRPRRDPPRNSSCARLRHVARGIADAQAVLSGLHRSELLPGAGPILELLAAAGRDVAACLELARPGSSRKVPGAQKRRHKPRRADSPRCRKASVVFNLLRLLTWELRLAAHSGPCL
modifications: biotinylated (site not stated) for BLI; N-glycans at N61 and at mutated P73N; mutated L28N not glycosylated
Consider B3, for which the Kd was 17 nM in test [1] and 49 nM in test [2].

B4: IFNλ4 WT purified from E. coli (eIFNλ4) (ligand, human, UniProt K9M1U5 22-179, looked up)
chain: AAPRRCLLSHYRSLEPRTLAAAKALRDRYEEEALSWGQRNCSFRPRRDPPRPSSCARLRHVARGIADAQAVLSGLHRSELLPGAGPILELLAAAGRDVAACLELARPGSSRKVPGAQKRRHKPRRADSPRCRKASVVFNLLRLLTWELRLAAHSGPCL
modifications: biotinylated (site not stated) for BLI
B4: the figures for the Kd in test [1] and in test [2] were 19 nM and 71 nM, respectively.
